Source: doi:10.1101/493668 (bioRxiv, 2019)
No end group written: not given here.

Experiments:
[1] = target: CsgA, major curlin subunit, recombinant with C-terminal His6-tag (Escherichia coli) (UniProt P28307); experiment: SEC-MALS
[2] = target: the molecule itself; experiment: ThT fibrillation kinetics
[3] = target: the molecule itself; experiment: ThT fibrillation kinetics; remark: listed apart in the source
crystal structure = target: the molecule itself; experiment: crystal structure

Chain of CsgA, major curlin subunit, recombinant with C-terminal His6-tag (P28307 21-151): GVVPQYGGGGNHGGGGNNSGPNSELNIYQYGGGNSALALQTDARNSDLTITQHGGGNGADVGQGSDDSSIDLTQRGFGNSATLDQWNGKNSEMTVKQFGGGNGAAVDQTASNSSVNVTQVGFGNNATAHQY

CsgA, major curlin subunit, recombinant with C-terminal His6-tag (from UniProt P28307 21-151) (natural protein)
stoichiometry N [1]: 6

LNIYQY-NH2 [CsgA segment 45LNIYQY50 (R1 repeat), capped at the C-terminus]
binding result [2]: binds

Ac-VTQVGF-NH2 [CsgA segment 137VTQVGF142 (R5 repeat), capped termini]
binding result [3]: binds

H-TASNSS-OH [CsgA segment 129TASNSS134 (R4-R5 loop), unmodified termini]
binding result (crystal structure): binds

VTQVGF-NH2 [CsgA segment 137VTQVGF142 (R5 repeat), capped at the C-terminus]
binding result [2]: binds

Ac-LNIYQY-NH2 [CsgA segment 45LNIYQY50 (R1 repeat), capped termini]
binding result [3]: binds

H-LNIYQY-OH [CsgA segment 45LNIYQY50 (R1 repeat), unmodified termini]
binding result (crystal structure): binds

Ac-IYQYGG-NH2 [CsgA segment 47IYQYGG52 (R1 repeat), capped termini]
binding result [3]: binds

H-IYQYGG-OH [CsgA segment 47IYQYGG52 (R1 repeat), unmodified termini]
binding result (crystal structure): binds

H-VTQVGF-OH [CsgA segment 137VTQVGF142 (R5 repeat), unmodified termini]
binding result (crystal structure): binds
